Patent US20120122783A1 (INDIANA UNIVERSITY RESEARCH AND TECHOLOGY, published 2012)
“And” between values parts separate entries of the source, which are not always exact repeats. Equal entries are not always repeated. One block for each binder: values may come before it. Square brackets hold non-standard residues; d marks the D form. Primed or numbered codes have the meaning given here. Ends that are not written are not given here. mPEG‑MAL 20 kDa = maleimido methoxyPEG of about 20 kDa, linked to the Cys sulfur; mPEG‑MAL 5 kDa = maleimido methoxyPEG of about 5 kDa, linked to the Cys sulfur; Abu(4-SO3H) = N[C@@H](CCS(=O)(=O)O)C(=O)O; PhLac = O=C(O)[C@@H](O)Cc1ccccc1; Aad = N[C@@H](CCCC(=O)O)C(=O)O; CH2CH2COOH′ = not defined here

Experiments:
Test in all cases: cell-based or functional assay
human glucagon receptor [1] = biological target: T1, human glucagon receptor (human, UniProt P47871 26-477)
human glucagon receptor [2] = biological target: T1, human glucagon receptor; remark: listed apart in the source
human glucagon receptor [3] = biological target: T1, human glucagon receptor; remark: listed apart in the source
human glucagon receptor [4] = biological target: T1, human glucagon receptor; remark: listed apart in the source

T1 sequence (P47871 26-477): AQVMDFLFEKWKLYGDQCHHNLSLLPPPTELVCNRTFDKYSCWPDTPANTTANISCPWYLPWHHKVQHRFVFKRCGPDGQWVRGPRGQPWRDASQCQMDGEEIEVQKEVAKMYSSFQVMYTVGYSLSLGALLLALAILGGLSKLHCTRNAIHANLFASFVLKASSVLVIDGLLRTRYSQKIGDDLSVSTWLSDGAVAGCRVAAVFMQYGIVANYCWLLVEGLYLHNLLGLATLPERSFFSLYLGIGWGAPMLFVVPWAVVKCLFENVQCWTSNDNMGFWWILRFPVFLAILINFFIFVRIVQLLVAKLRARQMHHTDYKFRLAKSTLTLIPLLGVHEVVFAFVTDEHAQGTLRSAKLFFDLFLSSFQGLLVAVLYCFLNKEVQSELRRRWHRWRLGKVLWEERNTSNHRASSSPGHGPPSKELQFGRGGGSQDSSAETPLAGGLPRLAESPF

cAMP (I/A)50, inhibition index (human glucagon receptor [2]): 1730 ratio
cAMP IC50 (human glucagon receptor [3]): 346 nM
Binder: FTSDYSKYLDSRRAQDFVQWLMNT-NH2 [Glucagon(aa6-29)-NH2]

cAMP (I/A)50, inhibition index (human glucagon receptor [2]): 506 ratio
cAMP IC50 (human glucagon receptor [3]): 101 nM
Binder: FTSC(CH2COOH)YSKYLDSRRAQDFVQWLMNT-NH2 [[(CSA-1)^9]Glucagon(aa6-29)-NH2]

IC50 (nM) (cAMP, inhibit 0.2 mM Glucagon) (human glucagon receptor [4]): 976 nM
Binder: C(20 kDa PEG)FTSEYSKYLDSRRAQDFVQWLMNT-NH2 [[C5(20kDaPEG), E9]Glucagon(aa5-29) -NH2]

IC50 (nM) (cAMP, inhibit 0.2 mM Glucagon) (human glucagon receptor [4]): 1610 nM
Binder: C(5 kDa PEG)FTSEYSKYLDSRRAQDFVQWLMNT-NH2 [[C5(5kDaPEG), E9]Glucagon(aa5-29) -NH2]

cAMP Induction EC50 (human glucagon receptor [1]): 1610 nM
cAMP Inhibition IC50 (human glucagon receptor [1]): 4460 nM
B3: [desHis^1, Leu^4, hCys^9(SO3-), Phe^25, Leu^27] Glucagon-NH2 (peptide)
peptide: SQLTFTS[Abu(4-SO3H)]YSKYLDSRRAQDFVQFLLNT-NH2
modifications: N-terminus assumed
SMILES: CC(C)C[C@H](NC(=O)[C@H](Cc1ccc(O)cc1)NC(=O)[C@H](CCCCN)NC(=O)[C@H](CO)NC(=O)[C@H](Cc1ccc(O)cc1)NC(=O)[C@H](CCS(=O)(=O)O)NC(=O)[C@H](CO)NC(=O)[C@@H](NC(=O)[C@H](Cc1ccccc1)NC(=O)[C@@H](NC(=O)[C@H](CC(C)C)NC(=O)[C@H](CCC(N)=O)NC(=O)[C@@H](N)CO)[C@@H](C)O)[C@@H](C)O)C(=O)N[C@@H](CC(=O)O)C(=O)N[C@@H](CO)C(=O)N[C@@H](CCCNC(=N)N)C(=O)N[C@@H](CCCNC(=N)N)C(=O)N[C@@H](C)C(=O)N[C@@H](CCC(N)=O)C(=O)N[C@@H](CC(=O)O)C(=O)N[C@@H](Cc1ccccc1)C(=O)N[C@H](C(=O)N[C@@H](CCC(N)=O)C(=O)N[C@@H](Cc1ccccc1)C(=O)N[C@@H](CC(C)C)C(=O)N[C@@H](CC(C)C)C(=O)N[C@@H](CC(N)=O)C(=O)N[C@H](C(N)=O)[C@@H](C)O)C(C)C

IC50 (nM) (cAMP, inhibit 0.2 mM Glucagon) (human glucagon receptor [4]): 1340 nM
Binder: C(3.4 kDa PEG)FTSEYSKYLDSRRAQDFVQWLMNT-NH2 (also: dimer: the two Cys5 joined by 3.4 kDa PEG) [3.4kDaPEG-dimer[C5, E9]Glucagon(aa5-29) -NH2]

cAMP Induction EC50 (human glucagon receptor [1]): 318 nM
cAMP Inhibition IC50 (human glucagon receptor [1]): 102 nM
Binder: SQLTFTSEYSKYLDSRRAQDFVQWLMNT-NH2 [[desHis^1, Leu^4, Glu^9] Glucagon-NH2]

cAMP (I/A)50, inhibition index (human glucagon receptor [2]): 2360 ratio
cAMP IC50 (human glucagon receptor [3]): 472 nM
B4: [hGlu^9]Glucagon(aa6-29)-NH2 (peptide)
peptide: FTS[Aad]YSKYLDSRRAQDFVQWLMNT-NH2
modifications: N-terminus assumed
SMILES: CSCC[C@H](NC(=O)[C@H](CC(C)C)NC(=O)[C@H](Cc1c[nH]c2ccccc12)NC(=O)[C@H](CCC(N)=O)NC(=O)[C@@H](NC(=O)[C@H](Cc1ccccc1)NC(=O)[C@H](CC(=O)O)NC(=O)[C@H](CCC(N)=O)NC(=O)[C@H](C)NC(=O)[C@H](CCCNC(=N)N)NC(=O)[C@H](CCCNC(=N)N)NC(=O)[C@H](CO)NC(=O)[C@H](CC(=O)O)NC(=O)[C@H](CC(C)C)NC(=O)[C@H](Cc1ccc(O)cc1)NC(=O)[C@H](CCCCN)NC(=O)[C@H](CO)NC(=O)[C@H](Cc1ccc(O)cc1)NC(=O)[C@H](CCCC(=O)O)NC(=O)[C@H](CO)NC(=O)[C@@H](NC(=O)[C@@H](N)Cc1ccccc1)[C@@H](C)O)C(C)C)C(=O)N[C@@H](CC(N)=O)C(=O)N[C@H](C(N)=O)[C@@H](C)O

IC50 (nM) (cAMP, inhibit 0.2 mM Glucagon) (human glucagon receptor [4]): 216 nM
Binder: [PhLac]TC(mPEG‑MAL 5 kDa)EYSKYLDSRRAQDFVQWLMNT-NH2 [[PLA6, C8(5kDaPEG), E9]Glucagon(aa6-29) -NH2]

IC50 (nM) (cAMP, inhibit 0.2 mM Glucagon) (human glucagon receptor [4]): 18 nM
Binder: [PhLac]TSEYSKYLDSRRAQDFVC(m‑dPEG24‑MAL)WLMNT-NH2 [[PLA6, E9 ,C24(1.2 kDaPEG)]Glucagon(aa6-29) -NH2]

Further lines, the binder ahead of its results:

B1: [desHis^1, desPhe^6, hCys^9(SO3-), Phe^25, Leu^27] Glucagon-NH2 (peptide)
peptide: SQGTTS[Abu(4-SO3H)]YSKYLDSRRAQDFVQFLLNT-NH2
modifications: N-terminus assumed
SMILES: CC(C)C[C@H](NC(=O)[C@H](Cc1ccc(O)cc1)NC(=O)[C@H](CCCCN)NC(=O)[C@H](CO)NC(=O)[C@H](Cc1ccc(O)cc1)NC(=O)[C@H](CCS(=O)(=O)O)NC(=O)[C@H](CO)NC(=O)[C@@H](NC(=O)[C@@H](NC(=O)CNC(=O)[C@H](CCC(N)=O)NC(=O)[C@@H](N)CO)[C@@H](C)O)[C@@H](C)O)C(=O)N[C@@H](CC(=O)O)C(=O)N[C@@H](CO)C(=O)N[C@@H](CCCNC(=N)N)C(=O)N[C@@H](CCCNC(=N)N)C(=O)N[C@@H](C)C(=O)N[C@@H](CCC(N)=O)C(=O)N[C@@H](CC(=O)O)C(=O)N[C@@H](Cc1ccccc1)C(=O)N[C@H](C(=O)N[C@@H](CCC(N)=O)C(=O)N[C@@H](Cc1ccccc1)C(=O)N[C@@H](CC(C)C)C(=O)N[C@@H](CC(C)C)C(=O)N[C@@H](CC(N)=O)C(=O)N[C@H](C(N)=O)[C@@H](C)O)C(C)C
cAMP Induction EC50 (human glucagon receptor [1]): 3210 nM
cAMP Inhibition IC50 (human glucagon receptor [1]): 9220 nM

Binder: FTSC(CH2CH2COOH′)YSKYLDSRRAQDFVQWLMNT-NH2 [[(CSA-2)^9]Glucagon(aa6-29)-NH2]
cAMP (I/A)50, inhibition index (human glucagon receptor [2]): 580 ratio
cAMP IC50 (human glucagon receptor [3]): 116 nM

Binder: FTSKYSKYLDSRRAQDFVQWLMNT-NH2 [[Lys^9]Glucagon(aa6-29)-NH2]
cAMP (I/A)50, inhibition index (human glucagon receptor [2]): 1990 ratio
cAMP IC50 (human glucagon receptor [3]): 398 nM

Binder: C(1.2 kDa PEG)FTSEYSKYLDSRRAQDFVQWLMNT-NH2 [[C5(1.2kDaPEG), E9]Glucagon(aa5-29) -NH2]
IC50 (nM) (cAMP, inhibit 0.2 mM Glucagon) (human glucagon receptor [4]): 2280 nM

B2: [desHis^1, hCys^9(SO3-), Phe^25, Leu^27] Glucagon-NH2 (peptide)
peptide: SQGTFTS[Abu(4-SO3H)]YSKYLDSRRAQDFVQFLLNT-NH2
modifications: N-terminus assumed
SMILES: CC(C)C[C@H](NC(=O)[C@H](Cc1ccc(O)cc1)NC(=O)[C@H](CCCCN)NC(=O)[C@H](CO)NC(=O)[C@H](Cc1ccc(O)cc1)NC(=O)[C@H](CCS(=O)(=O)O)NC(=O)[C@H](CO)NC(=O)[C@@H](NC(=O)[C@H](Cc1ccccc1)NC(=O)[C@@H](NC(=O)CNC(=O)[C@H](CCC(N)=O)NC(=O)[C@@H](N)CO)[C@@H](C)O)[C@@H](C)O)C(=O)N[C@@H](CC(=O)O)C(=O)N[C@@H](CO)C(=O)N[C@@H](CCCNC(=N)N)C(=O)N[C@@H](CCCNC(=N)N)C(=O)N[C@@H](C)C(=O)N[C@@H](CCC(N)=O)C(=O)N[C@@H](CC(=O)O)C(=O)N[C@@H](Cc1ccccc1)C(=O)N[C@H](C(=O)N[C@@H](CCC(N)=O)C(=O)N[C@@H](Cc1ccccc1)C(=O)N[C@@H](CC(C)C)C(=O)N[C@@H](CC(C)C)C(=O)N[C@@H](CC(N)=O)C(=O)N[C@H](C(N)=O)[C@@H](C)O)C(C)C
cAMP Induction EC50 (human glucagon receptor [1]): 430 nM

Binder: SQGTFTSEYSKYLDSRRAQDFVQFLLNT-NH2 [[desHis^1, Glu^9, Phe^25, Leu^27]Glucagon-NH2]
cAMP Induction EC50 (human glucagon receptor [1]): 81 nM

Binder: [PhLac]TC(mPEG‑MAL 20 kDa)EYSKYLDSRRAQDFVQWLMNT-NH2 [[PLA6, C8(20kDaPEG), E9]Glucagon(aa6-29)-NH2]
IC50 (nM) (cAMP, inhibit 0.2 mM Glucagon) (human glucagon receptor [4]): 236 nM and 92 nM

Binder: [PhLac]TSEYSKYLDSRRAQDFVC(mPEG‑MAL 20 kDa)WLMNT-NH2 [[PLA6, E9, C24(20kDaPEG)]Glucagon(aa6-29)-NH2]
IC50 (nM) (cAMP, inhibit 0.2 mM Glucagon) (human glucagon receptor [4]): 126 nM

Binder: [PhLac]TSEYC(mPEG‑MAL 20 kDa)KYLDSRRAQDFVQWLMNT-NH2 [[PLA6, E9, C11(20kDaPEG)]Glucagon(aa6-29)-NH2]
IC50 (nM) (cAMP, inhibit 0.2 mM Glucagon) (human glucagon receptor [4]): 664 nM
